Measured values as given in patent publication US20250042994A1 (HAINAN SIMCERE ZAIMING PHARMACEUTICAL, published 2025).
Substitutions are numbered along the chain they refer to. Each block holds one binder with its values, some of them ahead of it.

How the values were obtained:
[1] = biological target: T1, human CD19 exon1-3-his protein (human, UniProt P15391 20-186, limits assumed); experiment: ELISA, coated at 2 ug/mL
T1 construct: made in HEK293E cells; also called membrane-distal end; not shown: His tag
T1 sequence (looked up): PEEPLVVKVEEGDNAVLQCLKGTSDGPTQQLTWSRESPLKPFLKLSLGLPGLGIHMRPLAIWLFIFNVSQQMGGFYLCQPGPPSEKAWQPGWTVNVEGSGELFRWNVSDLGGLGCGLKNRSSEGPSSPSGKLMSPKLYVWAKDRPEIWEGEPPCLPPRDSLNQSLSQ
Method: (§1) Human CD19-his protein (purchased from ACROBiosystems, catalog number: CD9-H52H2) was diluted with PBS to a final concentration of 4 μg/mL, and then added to a 96-well ELISA plate at 100 μl/well. The plate was sealed with a plastic film and incubated overnight at 4° C., the plate was washed 2 times with PBS the next day, and then a blocking solution [PBS+2% (w/w) BSA] was added for blocking at room temperature for 2 h. The blocking solution was poured off, and 100 nM gradiently diluted CD19 chimeric antibody or control antibody was added at 50 μl/well. After incubation at 37° C. for 2 h, the plate was washed 3 times with PBS. […] TMB substrate was added at 50 μl/well, and incubated at room temperature for 10 min, and then a stop solution (1.0 N HCl) was added at 50 μl/well. The OD450 nm values were read by an ELISA microplate reader (Multimode Plate Reader, EnSight, purchased from Perkin Elmer).
CD19 protein contains 4 exons in the extracellular region, in which exons 1-3 are located at the membrane-distal end and exon 4 is located at the membrane-proximal end. […] To identify the distribution of antigen binding epitopes of the chimeric antibodies, human CD19 exon 1-3-His (membrane-distal end) was used to coat at 2 μg/mL according to the ELISA method in example 5.1.

murine CD19 protein = biological target: T2, murine CD19 protein (murine, UniProt P25918 17-287, limits assumed); experiment: ELISA, coated murine CD19
T2 construct: bought protein; also called commercial murine CD19
T2 sequence (looked up): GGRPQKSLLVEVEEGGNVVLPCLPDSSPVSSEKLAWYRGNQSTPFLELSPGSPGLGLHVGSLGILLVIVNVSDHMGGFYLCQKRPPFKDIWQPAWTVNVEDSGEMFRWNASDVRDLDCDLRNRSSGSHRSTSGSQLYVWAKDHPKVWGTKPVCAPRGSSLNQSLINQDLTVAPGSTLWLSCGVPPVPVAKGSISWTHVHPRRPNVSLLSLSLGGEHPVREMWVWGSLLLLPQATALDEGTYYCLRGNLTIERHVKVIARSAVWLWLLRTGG
Method: as §1
In order to detect the species cross-binding activity of the chimeric antibodies, an ELISA plate was coated with commercial murine CD19 (ACROBiosystems, catalog number: 50510-M08H) and monkey CD19 (ACROBiosystems, catalog number: 90051-C08H), respectively, and the ELISA detection was performed according to the method in example 5.1.

Human CD19-his protein [2] = biological target: T3, Human CD19-his protein (human, UniProt P15391 20-291); experiment: ELISA, antibody at 10 nM
T3 construct: bought protein; also called human CD19 protein; recombinant human CD19-His; not shown: His tag
T3 sequence (looked up): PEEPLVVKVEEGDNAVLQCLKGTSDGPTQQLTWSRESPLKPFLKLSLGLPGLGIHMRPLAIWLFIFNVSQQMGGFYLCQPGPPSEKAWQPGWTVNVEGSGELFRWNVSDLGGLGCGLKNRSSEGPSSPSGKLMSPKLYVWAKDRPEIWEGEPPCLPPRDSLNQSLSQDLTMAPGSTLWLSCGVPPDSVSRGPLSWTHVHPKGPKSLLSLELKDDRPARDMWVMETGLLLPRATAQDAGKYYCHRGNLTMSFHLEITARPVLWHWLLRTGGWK
Method: as §1

Human CD19-his protein [3] = biological target: T3, Human CD19-his protein; experiment: ELISA, antibody at 100 nM
Method: as §1

Human CD19-his protein [4] = biological target: T3, Human CD19-his protein; experiment: ELISA, antibody at 0.01 nM
Method: as §1

Human CD19-his protein [5] = biological target: T3, Human CD19-his protein; experiment: ELISA, antibody at 0.10 nM
Method: as §1

Human CD19-his protein [6] = biological target: T3, Human CD19-his protein; experiment: ELISA, antibody at 1.00 nM
Method: as §1

Human CD19-his protein [7] = biological target: T3, Human CD19-his protein; experiment: ELISA, antibody at 0.001 nM
Method: as §1

Human CD19-his protein [8] = biological target: T3, Human CD19-his protein; experiment: ELISA, antibody at 0.0001 nM
Method: as §1

B1: F3.13.2 (antibody, human IgG1, V domains shown)
VH: DVQLQESGPGLMKPSQSLSLTCSVTGYSITSGYYWNWIRQFPGNKLEWMGYISYDGSNNYNPSLKNRFSITRDTSKNQFFLKLNSVTTEDTATYYCARRKLTGGPYFDYWGQGTTLTVSS
VL: DIVLTQSPASLAVTLGQRATISCRASESVSFHGFHIMHWYQQKPGQPPKLLIYAASHLVSGVPDRFSGSGSETDFTLNIHPVEEEDAAAYFCQQSVEDPWTFGGGTKLEIK
notes: human-murine chimeric antibody, human IgG1
binding result [1]: no binding
binding result (murine CD19 protein): no binding
OD450 (Human CD19-his protein [2]): 0.29
OD450 (Human CD19-his protein [3]): 0.45
OD450 (Human CD19-his protein [4]): 0.05
OD450 (Human CD19-his protein [5]): 0.06
OD450 (Human CD19-his protein [6]): 0.18
OD450 (Human CD19-his protein [7]): 0.05
OD450 (Human CD19-his protein [8]): 0.05

B2: F3.81.2 (antibody, human IgG1, V domains shown)
VH: QVQLQQPGAELVMPGASVKLSCKASAYTFTNYWMHWVKQRPGHGLEWIGEIDPSDSYTDYNQNFKAKATLTVDKSSSTAYMQLSSLTSEDSAVYYCARLMGRYFDVWGTGTTVTVSS
VL: DIVMTQSHKFMSTSVGDRVSITCKASQDVSAAVAWYQQKPGQSPKLLINSASYRYTGVPDRFTGSGSGTDFTFTISSVQAEDLAVYYCQQHYSTPLTFGAGTKLELR
notes: as for B1
binding result [1]: no binding
binding result (murine CD19 protein): no binding
OD450 (Human CD19-his protein [2]): 1.05
OD450 (Human CD19-his protein [3]): 1.4
OD450 (Human CD19-his protein [4]): 0.07
OD450 (Human CD19-his protein [5]): 0.24
OD450 (Human CD19-his protein [6]): 0.74
OD450 (Human CD19-his protein [7]): 0.05
OD450 (Human CD19-his protein [8]): 0.05

B3: F3.126.15 (antibody, human IgG1, V domains shown)
VH: QVQLQQPGAELVMPGASVKLSCKASGYTFTSYWMHWVKQRPGQGLEWIGEIDPSDSYTTYNQNFKGKATLTVDISTSTAYIQLSNLTSEDSAVYYCARLTGNYIHYWGQGTTLTVSS
VL: B2 VL with A31P, K39R, S43C, N49F, A51S, Y55S, T94L, R107K
notes: as for B1
binding result [1]: no binding
binding result (murine CD19 protein): no binding
OD450 (Human CD19-his protein [2]): 0.46
OD450 (Human CD19-his protein [3]): 0.7
OD450 (Human CD19-his protein [4]): 0.05
OD450 (Human CD19-his protein [5]): 0.07
OD450 (Human CD19-his protein [6]): 0.2
OD450 (Human CD19-his protein [7]): 0.05
OD450 (Human CD19-his protein [8]): 0.05

B7: F3.5.1 (antibody, human IgG1, V domains shown)
VH: QAQLQQSGPELVKPGASVKISCKASGYAFSGSWMNWVQQRPGKGLEWIGRIYPGDGDTYYNGKFKDKAILTADKSSSTAYMQLSSLTSEDSAVYFCAQLRYRYVMDYWGQGTSVTVSS
VL: DIVLTQSPASLAVSLGQRATISCRASESVSIHGSHLMHWYQQKPGQPPRLLIYAASNLESGVPARFSGSGSETDFTLNIHPVEEEDAATYFCQQGIKDPYTFGGGTKLEIK
notes: as for B1
binding result [1]: no binding
binding result (murine CD19 protein): no binding
OD450 (Human CD19-his protein [2]): 1.75
OD450 (Human CD19-his protein [3]): 2.01
OD450 (Human CD19-his protein [4]): 0.11
OD450 (Human CD19-his protein [5]): 0.5
OD450 (Human CD19-his protein [6]): 1.38
OD450 (Human CD19-his protein [7]): 0.06
OD450 (Human CD19-his protein [8]): 0.05

Further lines, results first:

binding result [1]: no binding
binding result (murine CD19 protein): no binding
OD450 (Human CD19-his protein [2]): 0.46
OD450 (Human CD19-his protein [3]): 0.61
OD450 (Human CD19-his protein [4]): 0.05
OD450 (Human CD19-his protein [5]): 0.08
OD450 (Human CD19-his protein [6]): 0.24
OD450 (Human CD19-his protein [7]): 0.05
OD450 (Human CD19-his protein [8]): 0.05
B4: F3.114.12 (antibody, human IgG1, V domains shown)
VH: DVQLQESGPGLVKPSQSLSLTCSVTGYSITSGYDWNWIRQFPGNKLEWMGYISYDGKNNYNPSLRNRISITRDTSKNQFFLKLNSVTTEDTATYYCARRDLRGYFDVWGTGTTVTVSS
VL: DIVLTQSPATLSVTPGDRVSLSCRASQSISNYLHWYQQKSHESPRLLIKYASLSISGIPSRFSGSGSGTDFTLSINSVETEDFGVYFCQQSNSWPLTFGAGTKLELK
notes: as for B1

binding result [1]: no binding
binding result (murine CD19 protein): no binding
OD450 (Human CD19-his protein [2]): 0.42
OD450 (Human CD19-his protein [3]): 0.59
OD450 (Human CD19-his protein [4]): 0.05
OD450 (Human CD19-his protein [5]): 0.08
OD450 (Human CD19-his protein [6]): 0.21
OD450 (Human CD19-his protein [7]): 0.05
OD450 (Human CD19-his protein [8]): 0.05
B5: F3.3.10 (antibody, human IgG1, V domains shown)
VH: DVQLQESGPGLAKLSQSLSLTCSVTGYSITSGYYWNWIRQFPGNKLEWMGHISYDGNNNYNPSLKNRISITRDTSKNQFFLKLNSVTTEDTATYYCARENYSNYYFDYWGQGTTLTVSS
VL: DIVLTQSPASLAVSLGQRATISCRASQSVSKSSYTYIHWYQQKPGQPPKLLIKYASILQSGVPARFSGSGSGTDFTLNFHPVEEEDTATYYCQHSWEIPYTFGGGTKLEIK
notes: as for B1

binding result [1]: no binding
binding result (murine CD19 protein): no binding
OD450 (Human CD19-his protein [2]): 0.6
OD450 (Human CD19-his protein [3]): 0.94
OD450 (Human CD19-his protein [4]): 0.06
OD450 (Human CD19-his protein [5]): 0.11
OD450 (Human CD19-his protein [6]): 0.36
OD450 (Human CD19-his protein [7]): 0.05
OD450 (Human CD19-his protein [8]): 0.05
B6: F3.83.9 (antibody, human IgG1, V domains shown)
VH: B5 VH with A12V, L14P, H51Y, N57G, Y95F, N100D, Y104W, Y108V, Q111T, L115V
VL: B5 VL with T35S, I37M, P47S, Q59K, F79I, Y100W
notes: as for B1

binding result [1]: no binding
binding result (murine CD19 protein): no binding
OD450 (Human CD19-his protein [2]): 1.01
OD450 (Human CD19-his protein [3]): 1.19
OD450 (Human CD19-his protein [4]): 0.06
OD450 (Human CD19-his protein [5]): 0.11
OD450 (Human CD19-his protein [6]): 0.42
OD450 (Human CD19-his protein [7]): 0.05
OD450 (Human CD19-his protein [8]): 0.05
B8: F3.40.14 (antibody, human IgG1, V domains shown)
VH: B7 VH with N61S, K74T, Y101S, T112A
VL: B7 VL with S34T, K97D
notes: as for B1

binding result [1]: no binding
binding result (murine CD19 protein): no binding
OD450 (Human CD19-his protein [2]): 1.08
OD450 (Human CD19-his protein [3]): 1.32
OD450 (Human CD19-his protein [4]): 0.1
OD450 (Human CD19-his protein [5]): 0.39
OD450 (Human CD19-his protein [6]): 0.71
OD450 (Human CD19-his protein [7]): 0.06
OD450 (Human CD19-his protein [8]): 0.05
B9: F6.12.12 (antibody, human IgG1, V domains shown)
VH: DVQLQESGPGLVKPSQSLSLTCSVTGYSITSGYYWIWIRQFPGNKLEWMGYISYDASNKYKPSLKNRISITRDTSKNQFFLKLNSVTAEDTATYFCAREDLRGYFDVWGTGTSVTVSS
VL: DIVLTQSPASLAVSLGRRATISCRASQSVSTSGFSYMHWYQQKPGQPPNLLIKYASILQSGVPARFSGSGSGTDFILNIHPVEDVDTATYYCQHSWGIPFTFGSGTKLEIK
notes: as for B1
